Paper PMC7210271, “Structural basis for impairment of DNA methylation by the DNMT3A R882H mutation” (Nature Communications, 2020)

Molecular target: the molecule itself
Test: crystal structure; DNMT3A(628-912, WT or R882H)-DNMT3L(178-386) tetramer covalently bound to 25-mer zebularine DNA duplex (CGA, CGT or CAG) and SAH; crystals at 4 °C from 0.1 M sodium citrate pH 4.2 or 4.4, PEG8000

B1: DNMT3A R882H mutant, MTase (C-terminal) domain, residues 628-912 (domain or fragment, UniProt Q9Y6K1 628-912, looked up)
chain: AEKRKPIRVLSLFDGIATGLLVLKDLGIQVDRYIASEVCEDSITVGMVRHQGKIMYVGDVRSVTQKHIQEWGPFDLVIGGSPCNDLSIVNPARKGLYEGTGRLFFEFYRLLHDARPKEGDDRPFFWLFENVVAMGVSDKRDISRFLESNPVMIDAKEVSAAHRARYFWGNLPGMNRPLASTVNDKLELQECLEHGRIAKFSKVRTITTRSNSIKQGKDQHFPVFMNEKEDILWCTEMERVFGFPVHYTDVSNMSHLARQRLLGRSWSVPVIRHLFAPLKEYFACV
modifications: catalytic cysteine C710 covalently linked to zebularine of the DNA (in the crystallised complexes)
notes: DNMT3A, MTase domain (C-terminal domain), residues 628-912, with the AML hotspot mutation R882H; R882H is a mutation found in acute myeloid leukemia patients; it was removed by ULP1; also called R882H-mutated DNMT3A; R882H DNMT3A; source: E. coli BL21 DE3 (RIL), co-expressed with DNMT3L, purified (Ni-NTA, Heparin, SEC); not shown: His6-SUMO, N-terminal, cleaved
binding result: binds
